In article doi:10.1101/675587:

Biological target: recombinant caprine β-lactoglobulin (unlabelled) (caprine) (UniProt P02756)
Assay: AUC

In the case of “recombinant caprine β-lactoglobulin (unlabelled) (from UniProt P02756 19-180) (natural protein)”, the stoichiometry N is reported as 2.
